In patent US20220023399A1, “BLOOD COMPONENT POTENTIATION OF LYTIC PROTEIN ANTI-BACTERIAL ACTIVITY AND METHODS AND USES THEREOF” (priority 2017, published 2022):
“And” between values parts separate entries of the source, which are not always exact repeats. Identical values can stand only once.

Assays:
[1] = system: S. aureus (strain not given); assay: MIC assay in supplemented media (recapitulation of blood effect; delipidated serum with fatty acids); assay type: cell-based
[2] = system: 171 clinical S. aureus isolates (MSSA, MRSA, vancomycin-, linezolid-, daptomycin-resistant); assay: MIC by broth microdilution in CAMHB vs human serum, 171 clinical isolates
S. aureus HPV 107 (MRSA) = assay: Checkerboard assay, additional MRSA strains; assay type: cell-based; conditions: paired agent not given
[3] = system: S. aureus CAIRD 456 (MRSA); assay: Checkerboard assay, additional MRSA strains; assay type: cell-based; conditions: paired agent not given
[4] = system: S. aureus (strain not given); assay: MIC analysis of various lysins, chimeric lysins and antibiotics in MHB and human serum; assay type: cell-based; conditions: Table 2
S. aureus JMI 227 (MRSA) = assay: Checkerboard assay, additional MRSA strains; assay type: cell-based; conditions: paired agent not given
[5] = system: S. aureus (strain not given); assay: MIC analysis of various lysins, chimeric lysins and antibiotics in MHB and human serum; assay type: cell-based; conditions: Table 14 (Example 2)
Procedure: To further evaluate the binding domain relevance to the serum component effect, various chimerics were constructed by replacing or swapping out one binding domain for another. Chimeric lysins having the Sal1 CHAP catalytic domain with ClyS binding domain, PlySs2 (CF-301) binding domain, or lysostaphin binding domain were assayed for MIC using MHB versus human serum. the results are depicted below in TABLE 14.

[6] = system: S. aureus JMI 1280 (MRSA); assay: Checkerboard assay, additional MRSA strains; assay type: cell-based; conditions: paired agent not given
[7] = system: methicillin-resistant S. aureus (MRSA) strain MW2; assay: Time-kill assay in blood matrices and MHB; assay type: cell-based
S. aureus strain MW2 [8] = assay: Synergy time-kill assay; assay type: cell-based; conditions: human serum
S. aureus NRS 100 (MRSA) = assay: Checkerboard assay, additional MRSA strains; assay type: cell-based; conditions: paired agent not given
[9] = system: S. aureus ATCC 43300 (MRSA); assay: Checkerboard assay, additional MRSA strains; assay type: cell-based; conditions: paired agent not given
[10] = system: S. aureus JMI 4789 (MRSA); assay: Checkerboard assay, additional MRSA strains; assay type: cell-based; conditions: paired agent not given
MRSA strain MW2 [11] = assay: Rat infective endocarditis model; assay type: in vivo, Sprague-Dawley rats
S. aureus strain MW2 [12] = assay: Lytic assay (loss of optical density) and specific activity
MRSA strain MW2 [13] = assay: Rabbit infective endocarditis model; assay type: in vivo, New Zealand White Rabbits; conditions: rabbit; total dose ≥0.09 mg/kg PlySs2 (CF-301) in addition to DAP below the HTD equivalent
S. aureus strain MW2 [14] = conditions: CAMHB (Schuch 2014); cited from earlier work
[15] = medium head missing (human serum)

B1: PlySs2 (CF-301): antistaphylococcal lysin from a Streptococcus suis prophage; N-terminal CHAP domain, C-terminal SH3-type binding domain; SEQ ID NO:3 (protein, listed as Streptococcus suis)
chain: MTTVNEALNNVRAQVGSGVSVGNGECYALASWYERMISPDATVGLGAGVGWVSGAIGDTISAKNIGSSYNWQANGWTVSTSGPFKAGQIVTLGATPGNPYGHVVIVEAVDGDRLTILEQNYGGKRYPVRNYYSAASYRQQVVHYITPPGTVAQSAPNLAGSRSYRETGTMTVTVDALNVRRAPNTSGEIVAVYKRGESFDYDTVIIDVNGYVWVSYIGGSGKRNYVATGATKDGKRFGNAWGTFK
[1]; 50% MHB/50% human serum (heat inactivated) + HSA, 40 mg/mL
  Fold decrease in MIC: 4
[1]; 50% MHB/50% human serum (heat inactivated) + HuLYZ, 10 μg/mL
  Fold decrease in MIC: 2
[1]; 50% MHB/50% human serum (heat inactivated) + HuLYZ, 10 μg/mL + HSA 40 mg/mL
  Fold decrease in MIC: 16
[1]; 50% MHB/50% human serum (heat inactivated) + MouseSA, 40 mg/mL
  Fold decrease in MIC: 1
[1]; 50% MHB/50% human serum (heat inactivated) + RabSA, 40 mg/mL
  Fold decrease in MIC: 4
[1]; 50% MHB/50% human serum (heat inactivated) + RatSA, 40 mg/mL
  Fold decrease in MIC: 2
[1]; MHB supplemented with HSA, 40 mg/mL
  Fold decrease in MIC: 8
[1]; MHB supplemented with HuLYZ, 10 μg/mL
  Fold decrease in MIC: 2
[1]; MHB supplemented with HuLYZ, 10 μg/mL + HSA 40 mg/mL
  Fold decrease in MIC: 16
[1]; MHB supplemented with RabSA, 40 mg/mL
  Fold decrease in MIC: 8
[1]; delipidated human serum + Oleate (0.625 mg/mL)
  Fold decrease in CF-301 MIC compared to media alone: 8
[1]; delipidated human serum + Palmitate (0.625 mg/mL)
  Fold decrease in CF-301 MIC compared to media alone: 16
[1]; delipidated human serum + Palmitate + Oleate
  Fold decrease in CF-301 MIC compared to media alone: 16
[2]; MRSA (N 75), CAMHB
  MIC Range: 2-128
[2]; MRSA (N 75), human serum
  MIC Range: 0.25-2
[2]; MSSA (N 74), CAMHB
  MIC Range: 8-32
[2]; MSSA (N 74), human serum
  MIC Range: 0.25-1
[2]; Other (N 22: 12 vancomycin-, 5 linezolid-, 5 daptomycin-resistant strains), CAMHB
  MIC Range: 0.5-32^
[2]; Other (N 22: 12 vancomycin-, 5 linezolid-, 5 daptomycin-resistant strains), human serum
  MIC Range: 0.25-2
S. aureus HPV 107 (MRSA); CAMHB
  ΣFICavg: 0.64
  ΣFICmin: 0.5
S. aureus HPV 107 (MRSA); [15]
  ΣFICavg: 0.44
  ΣFICmin: 0.38
[3]; CAMHB
  ΣFICavg: 0.75
  ΣFICmin: 0.5
[3]; [15]
  ΣFICavg: 0.44
  ΣFICmin: 0.38
[4]; MHB
  Minimal inhibitory concentration, MHB: 32 µg/mL
[4]; human serum vs MHB
  Fold decrease in MIC: 32
[4]; human serum
  Minimal inhibitory concentration, Human serum: 1 µg/mL
S. aureus JMI 227 (MRSA); CAMHB
  ΣFICavg: 0.64
  ΣFICmin: 0.5
S. aureus JMI 227 (MRSA); [15]
  ΣFICavg: 0.29
  ΣFICmin: 0.25
[5]; MHB
  Minimal inhibitory concentration, MHB: 32 µg/mL
[5]; human serum vs MHB
  Fold decrease in MIC: 32
[5]; human serum
  Minimal inhibitory concentration, Human serum: 1 µg/mL
[6]; CAMHB
  ΣFICavg: 0.57
  ΣFICmin: 0.5
[6]; [15]
  ΣFICavg: 0.29
  ΣFICmin: 0.25
[7]; MHB
  minimum sterilizing concentration: 320 µg/mL
[7]; all human blood matrices (whole blood, serum, plasma), sterilizing by 24 hours
  minimum sterilizing concentration: 3.2 µg/mL
[7]; calf serum
  sterilizing concentration: 32 µg/mL
[7]; dog serum
  sterilizing concentration: 3.2 µg/mL
[7]; mouse serum
  sterilizing concentration: > 320 µg/mL
[7]; rabbit serum
  sterilizing concentration: 3.2 µg/mL
[7]; rat serum
  sterilizing concentration: 32 µg/mL
[7]; strain MW2, human blood matrices vs MHB
  difference in sterilizing activity/potency, blood compared to MHB: 100 fold
S. aureus strain MW2 [8]
  concentration of each agent in PlySs2 (CF-301) + lysostaphin combination sterilizing at 24 hours: 0.005 µg/mL
  minimum concentration demonstrating synergy with daptomycin: 0.025 µg/mL
S. aureus strain MW2 [8]; in combination with DAP
  fold decrease in minimum sterilizing concentration vs single agent: 64 fold
S. aureus NRS 100 (MRSA); CAMHB
  ΣFICavg: 0.75
  ΣFICmin: 0.5
S. aureus NRS 100 (MRSA); [15]
  ΣFICavg: 0.29
  ΣFICmin: 0.25
[9]; CAMHB
  ΣFICavg: 0.87
  ΣFICmin: 0.5
[9]; [15]
  ΣFICavg: 0.29
  ΣFICmin: 0.25
[10]; CAMHB
  ΣFICavg: 0.64
  ΣFICmin: 0.5
[10]; [15]
  ΣFICavg: 0.29
  ΣFICmin: 0.25
MRSA strain MW2 [11]; S. aureus infectious endocarditis models
  fold lower doses giving comparable efficacy in the rabbit vs the rat model: 111 fold
MRSA strain MW2 [11]; rat IE model, 10 mg/kg in addition to DAP, 3 log10 drop relative to DAP alone
  estimate AUC/MIC ratio required to achieve maximal efficacy: ≥ 0.87
MRSA strain MW2 [11]; rat, total dose 10 mg/kg PlySs2 (CF-301) in addition to HTD equivalent of DAP, relative to DAP alone
  drop in CFU/g in heart valve vegetation: ~3 log 10
MRSA strain MW2 [11]; rats 10 mg/kg vs rabbits 0.18 mg/kg
  fold higher AUC exposure required for similar bactericidal effect in rats compared to rabbits: > 20 fold
MRSA strain MW2 [11]; rats 10 mg/kg vs rabbits 0.18 mg/kg, in addition to DAP
  fold higher dose required for similar bactericidal effect in rats compared to rabbits: ~50 fold and > 50 fold
S. aureus strain MW2 [12]; supplement HuLYZ, 10 μg/mL
  Fold increase in specific activity: 9.8
S. aureus strain MW2 [12]; supplement rHSA, 4%
  Fold increase in specific activity: 17.8
S. aureus strain MW2 [12]; supplements rHSA, HuLYZ
  Fold increase in specific activity: 25
MRSA strain MW2 [13]
  decrease in bacterial densities as compared to DAP treatment alone: 3 log 10
S. aureus strain MW2 [14]
  minimum concentration required for synergy with daptomycin: 4 µg/mL
